Measured values published in patent publication US20220267379A1 (published 2022).
Read-outs that look alike come from different tables or passages of the source. One block for each binder: values may come before it. Positions of bridges follow the written chain, without caps; N, C: chain ends. Non-standard residues stand in square brackets, D forms with d. Primed or numbered codes have the meaning given here. Chains are numbered I, II in the order given. No end group written: not given here. *: point of attachment. Palmitoyl = CCCCCCCCCCCCCCCC(=O)*; PEG2″ = not defined here

Key:
[1] = molecular target: human serum albumin (HSA) (human, UniProt P02768 25-609); experiment: fluorescence polarization; human serum dilution
trypsin = trypsin (human); experiment: enzyme inhibition
[2] = molecular target: human Kallikrein-related peptidase 5 (hKLK5) (human, UniProt Q9Y337 67-293); experiment: enzyme inhibition
human Kallikrein-related peptidase 5 (hKLK5), sequence (Q9Y337 67-293): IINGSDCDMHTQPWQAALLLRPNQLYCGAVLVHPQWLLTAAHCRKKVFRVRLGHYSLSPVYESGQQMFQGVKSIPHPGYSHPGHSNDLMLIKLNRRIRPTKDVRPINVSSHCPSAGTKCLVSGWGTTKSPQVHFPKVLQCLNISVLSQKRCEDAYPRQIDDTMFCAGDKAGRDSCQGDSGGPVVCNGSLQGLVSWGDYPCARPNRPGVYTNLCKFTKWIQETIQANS

FXIIa (Factor XIIa) = molecular target: T1, FXIIa (Factor XIIa) (human, UniProt P00748 373-615)
T1 chain: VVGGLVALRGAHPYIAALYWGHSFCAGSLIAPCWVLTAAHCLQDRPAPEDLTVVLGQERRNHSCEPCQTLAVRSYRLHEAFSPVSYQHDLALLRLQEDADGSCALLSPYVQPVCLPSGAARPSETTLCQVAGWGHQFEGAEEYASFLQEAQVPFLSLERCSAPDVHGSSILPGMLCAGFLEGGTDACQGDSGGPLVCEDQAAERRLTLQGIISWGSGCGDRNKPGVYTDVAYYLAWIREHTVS

[3] = molecular target: T2, mouse serum albumin (MSA) (mouse, UniProt P07724 25-608); experiment: fluorescence polarization
T2 sequence (P07724 25-608): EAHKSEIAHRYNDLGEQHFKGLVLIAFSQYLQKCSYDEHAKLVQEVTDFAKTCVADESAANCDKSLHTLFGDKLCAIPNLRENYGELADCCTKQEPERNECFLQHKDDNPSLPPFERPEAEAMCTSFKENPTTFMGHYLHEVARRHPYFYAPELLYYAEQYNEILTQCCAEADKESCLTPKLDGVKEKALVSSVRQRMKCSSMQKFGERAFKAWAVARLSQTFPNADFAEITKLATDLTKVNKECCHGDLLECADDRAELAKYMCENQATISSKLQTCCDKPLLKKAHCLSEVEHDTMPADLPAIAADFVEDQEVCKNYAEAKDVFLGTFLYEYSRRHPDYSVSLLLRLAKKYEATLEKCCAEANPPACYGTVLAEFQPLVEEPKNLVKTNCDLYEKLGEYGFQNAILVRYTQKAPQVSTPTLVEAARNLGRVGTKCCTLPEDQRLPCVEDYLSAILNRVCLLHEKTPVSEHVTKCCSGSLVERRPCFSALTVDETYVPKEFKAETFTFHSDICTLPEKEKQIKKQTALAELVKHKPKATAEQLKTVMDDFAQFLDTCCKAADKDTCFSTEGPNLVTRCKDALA

[4] = molecular target: T2, mouse serum albumin (MSA)
tPA = experiment: enzyme inhibition
uPA = experiment: enzyme inhibition
thrombin = experiment: enzyme inhibition
plasmin = experiment: enzyme inhibition
PK = experiment: enzyme inhibition

B1: N-terminal albumin tag conjugate of KLK5 inhibitor 035 (peptide)
peptide 1: EYEK(Palmitoyl)EYE[PEG2″]
peptide 2: GCTRQYPC
modifications: bridge II:2-II:8; not fully specified (N-terminus, bridges); also: tag C-terminus joined through PEG2 to inhibitor N-terminus (one linear molecule)
- Kd [1]: 0.118 µM

B3: KLK5 inhibitor 035-tag (C-terminal albumin tag conjugate of 035) (peptide)
peptide 1: GCTRQYPCGKG
peptide 2: EYEK(Palmitoyl)EYE
modifications: bridge I:2-I:8; not fully specified (N-terminus, C-terminus, bridges); also: albumin tag (chain 2) joined via PEG2 to side chain of Lys10 of chain 1, tag end used not given here, N-terminal fluorescein via PEG2, chain not given here
- Kd [3]: 7 µM

B4: N-terminal albumin tag conjugate of KLK7 inhibitor 096 (peptide)
peptide 1: EYEK(Palmitoyl)EYE[PEG2″]
peptide 2: PCLYLARCS
modifications: bridge II:2-II:8; not fully specified (N-terminus, bridges); also: tag C-terminus joined through PEG2 to inhibitor N-terminus (one linear molecule)
- Kd [1]: 0.168 µM

Other lines, results leading:

- Ki (trypsin): 60 µM
- Ki [2]: 0.01 µM
- Ki (FXIIa (Factor XIIa)): 43 µM
Binder: GCTRQYPC (linker 2-8 via 1,3‑dibromoacetone) [peptide 035 (lead KLK5 inhibitor)]

- Kd [3]: 10.1 µM
B2: SSSKSSS-tag (peptide)
peptide: SSSKSSS
modifications: not fully specified (residue 4, N-terminus); also: fluorescein as in the albumin tag

- Kd [4]: 7.9 µM
Binder: EYEK(Palmitoyl)EYE-fluorescein [albumin tag with fluorescein at the C-terminus (tag-F)]

- Ki (tPA): > 100 µM
- Ki (uPA): > 100 µM
- Ki (thrombin): > 100 µM
- Ki (plasmin): > 100 µM
- Ki (PK): > 100 µM
Binder: GCTRQYPC (linker 2-8 via 1,3‑dibromoacetone) [peptide 035]
